Measurements published in US20090004675A1, “Method of Identifying Compounds for Bacterial Growth Modulation” (priority 2004, published 2009).

Experiments:
[1] = biological target: Escherichia coli β clamp (beta subunit of DNA polymerase III holoenzyme) (UniProt P0A988); assay: fluorescence (fluorophore-labeled β titrated with peptide); ±0.6; labeled β
[2] = biological target: Escherichia coli β clamp (beta subunit of DNA polymerase III holoenzyme) (UniProt P0A988); assay: fluorescence anisotropy; labeled peptide
[3] = biological target: Escherichia coli β clamp (beta subunit of DNA polymerase III holoenzyme) (UniProt P0A988); assay: fluorescence (fluorophore-labeled β titrated with peptide); ±0.9; labeled β

Escherichia coli β clamp (beta subunit of DNA polymerase III holoenzyme), sequence (P0A988 whole entry): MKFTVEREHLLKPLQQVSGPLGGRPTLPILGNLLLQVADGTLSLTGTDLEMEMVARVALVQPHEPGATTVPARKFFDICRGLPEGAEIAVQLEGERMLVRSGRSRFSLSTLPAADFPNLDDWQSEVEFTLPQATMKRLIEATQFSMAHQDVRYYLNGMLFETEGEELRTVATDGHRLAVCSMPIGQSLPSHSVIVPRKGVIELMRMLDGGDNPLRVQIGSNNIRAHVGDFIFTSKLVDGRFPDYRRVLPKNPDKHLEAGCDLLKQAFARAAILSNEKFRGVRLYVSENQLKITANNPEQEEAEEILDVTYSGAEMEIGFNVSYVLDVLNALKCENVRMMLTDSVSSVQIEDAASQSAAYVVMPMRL
Peptide corresponding to C-terminal residues of Streptococcus pyogenes Pol C, sequence (A2RGI3 1444-1465): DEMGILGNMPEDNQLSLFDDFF
C-terminal peptide corresponding to Staphylococcus aureus Pol C, sequence (A6QGG4 1419-1438): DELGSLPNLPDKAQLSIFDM

Row | Substance | Kd [1] [µM] | Kd [2] [µM] | Kd [3] [µM]
1 | Peptide corresponding to C-terminal residues of Streptococcus pyogenes Pol C | 2.5 | 1.5 | –
2 | C-terminal peptide corresponding to Staphylococcus aureus Pol C | – | 5.9 | 7.2
